The assay has as its target GST-MreC from Helicobacter pylori (residues L37-N248), wild type (H. pylori) (UniProt B5Z916). Kind of assay: ITC; iTC200, 20 °C; PBP2 (3 μL of 160.4 μM) titrated into the cell with GST-tagged MreC (25 μM).

The Kd is the concentration at which binding is half-saturated. Read a low Kd as tighter binding.

“PBP2 from Helicobacter pylori (residues L38-L588, lacking the TM helix), His6-tagged (domain or fragment)” displayed a Kd of 400 nM.

The values above are taken from PMC5626683.
